According to US20160311886A1, “Constructs Binding to Phosphatidylserine and Their Use in Disease Treatment and Imaging” (Board of Regents, The University of Texas System, priority 2005, published 2016):

B1: 3G4: Mouse IgG3 kappa monoclonal antibody to PS and anionic phospholipids; binding mediated by β2-glycoprotein I (antibody, listed as Mus musculus)
VH: MGWTWIFILILSVTTGVHSEVQLQQSGPELEKPGASVKLSCKASGYSFTGYNMNWVKQSHGKSLEWIGHIDPYYGDTSYNQKFRGKATLTVDKSSSTAYMQLKSLTSEDSAVYYCVKGGYYGHWYFDVWGAGTTVTVSSATTTAPSVYPLVP
VL: MDMRAPAQILGFLLLLFPGTRCDIQMTQSPSSLSASLGERVSLTCRASQDIGSSLNWLQQGPDGTIKRLIYATSSLDSGVPKRFSGSRSGSDYSLTISSLESEDFVDYYCLQYVSSPPTFGAGTKLELKRADAAPTVFIFGRIP

Tests used:
[1] = test system: tumor and normal vascular endothelium; assay: Biodistribution of 9D2 antibody and annexin V in tumor bearing mice; assay type: in vivo, mouse
Procedure: To detect externally-positioned phospholipids, methods were performed essentially as previously described (Example V; Ran et al., 1998). Tumor-bearing SCID mice were injected intravenously with either 50 μg of 9D2 or biotinylated 9D2 antibody or 100 μg of biotinylated annexin V. Sixty min later mice were sacrificed and their blood circulation was exsanguinated and perfused with heparinized saline as previously described (Burrows et al., 1992). All major organs and tumor were harvested and snap-frozen for preparation of cryosections.
Sections were blocked with PBS containing 10% serum. To prevent loss of phospholipids during slide processing, detergents and organic solvents were omitted from blocking and washing buffers. Rat IgM was detected using goat anti rat IgM specific)-HRP conjugate followed by development with carbazole or DAB (Fries et al., 1993). Biotinylated reagents were detected by streptavidin conjugated to HRP.
Tumor sections derived from mice injected with saline or rat IgM of irrelevant specificity served as negative controls. […] No signal was detected under these conditions. The number of positive vessels per high power field was determined at magnification of ×100. At least 10 fields per section were examined and the average percentage of positive vessels was calculated. […]
Structures with localized 9D2 antibody or annexin V were identified as blood vessels by morphological appearance on DAB-stained sections and by co-incident staining with the pan-endothelial cell marker, MECA 32 on serial sections of frozen tissues. Quantification on DAB-stained sections was done by counting vessels stained by MECA 32, 9D2 or annexin V in serial sections of a tumor. […] At least 10 random fields per section (0.317 mm^2/field) were scored in blinded fashion by two independent observers. The mean numbers and standard errors of vessels stained by 9D2, annexin V or MECA 32 were calculated. The mean number of 9D2 or annexin V-positive vessels determined in each tumor type group was compared to the mean number of MECA 32-positive vessels in the same tumor group. […]

[2] = test system: human CMV AD169; assay: CMV-GFP spread by fluorescent microscopy
[3] = mouse, in vivo, iv
[4] = test system: MDA-MB-435 breast tumors; assay: 3G4 and chimeric 3G4 tumor treatment; assay type: in vivo, mouse; details: MD-MBA-435s; IP 800 μg day 15, 200 μg every two to three days, 400 μg day 35
Procedure: Tumors were also established using MD-MBA-435s cells and treated as described above. […] The treatment of large L540 tumors, MDA-MB-231 and MD-MBA-435s tumor cells for 60 days was also effective. The antibodies caused tumor vascular injury, thrombosis and necrosis and retarded tumor growth, with no evidence of toxicity.
MD-MBA-435s lucerifase cells were obtained from Dr. Angels Sierra Jimenez, Barcelona, Spain and were grown in 10% DMEM. Mice were injected with tumor cells as described as above, and at 2 weeks post injection, the tumors were measured and the volume recorded. […] Treatment was initiated by IP injection (800 μg) at day 15 and continued with injections of 200 μg every two to three days until the final injection of 400 μg at day 35. Tumor volumes and mouse body weights were measured on injection days. Mice were sacrificed and perfused with saline for 12 minutes. The organs and tumor were removed, snap-frozen in liquid nitrogen and the tumor sectioned for immunohistochemistical analysis.
Groups of 8-10 female SCID mice were injected subcutaneously with 2×10^7 L540 cells or orthotopically with 1×10^7 MDA-MB-435 or MDA-MB-231 cells. BALB/c mice were injected subcutaneously with 1×10^6 Meth A cells. […] Animals were monitored three times a week for tumor size and body weight. […]

[5] = 3G4 toxicity studies in mice; assay type: in vivo, mouse
Source text: The following parameters were specifically examined.
Mice retain normal physical signs, bone marrow cellularity, white blood cell counts, histology and coagulation functions.

[6] = test system: ABAE cells with exposed PS; assay: Live-cell binding assay on LPC-treated endothelial cells; assay type: cell-based, bovine; details: DMEM+10% FBS
How it was run: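 ABAE cells cultured overnight were treated with 200 μM lysophosphatidylcholine to expose PS, then fixed in 4% paraformaldehyde and antibody binding was detected with biotin anti-mouse secondary plus FITC-streptavidin, with DAPI counterstain. Binding area is expressed as FITC/DAPI pixel ratio relative to basal binding, averaged over five 200× images (±SD).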

| Molecule | PS-positive vessels of MECA 32-stained vessels per field ([1]; B16 tumor) [%] | PS-positive vessels of MECA 32-stained vessels per field ([1]; L540cy tumor) [%] | PS-positive vessels of MECA 32-stained vessels per field ([1]; MDA-MB-231 tumor, one hour after i.v. injection) [%] | cell-to-cell spread ([2]; 100 μg/ml and 50 μg/ml) | entry of the virus into the cells ([2]; day 3, 50 and 100 μg/ml) | viral spread in monolayer ([2]; day 9, 100 μg/ml and 50 μg/ml, control wells approximately 80% infected) | Volume of distribution [3] [mL/kg] | half-life in the α-phase of clearance [3] [h] | half-life in the β-phase of clearance [3] [days] | tumor growth vs control [4] | blood coagulation parameters (PT, APTT, D-dimer) ([5]; 100 μg IP three times a week) | toxicity ([5]; 1 mg purified antibody intraperitoneally) | physical signs of toxicity ([5]; BALB/c mice, 100 μg IP three times a week for 2 to 4 weeks) | physical signs of toxicity ([5]; single i.p. 2 mg, or 0.5 mg daily for 14 days) | Bone marrow cellularity and composition ([5]; six injections, 100 μg) | binding to LPC-treated ABAE cells ([6]; 20 nM) | increase in area of binding upon LPC-treatment ([6]; 200 μM LPC) |
| --- | --- | --- | --- | --- | --- | --- | --- | --- | --- | --- | --- | --- | --- | --- | --- | --- | --- |
| Annexin V: High affinity PS binding ligand; natural ligand binding anionic phospholipids and PE | 21.3 ± 6.6 | 16.7 ± 3.9 | 45.3 ± 5.6 |  |  |  |  |  |  |  |  |  |  |  |  |  |  |
| B1 |  |  |  | complete inhibition of cell-to-cell spread | does not appear to significantly inhibit the entry of the virus | restricted to the original singly-infected cell | 100 | 3 | 5 | effectively retarded tumor growth | normal | no toxicity was observed | No physical signs of toxicity have been observed | showed no physical signs of toxicity | normal | bound to LPC-treated ABAE cells | greater than 500 fold |
